Laboratory results from PMC4395114 (PLoS Pathogens, 2015).

Biological target: the molecule itself
Assay: SEC + other: negative stain electron microscopy

B1: RNA-free recombinant WT NP (NΔ7NP, C-terminal His tag), influenza A/WSN/33 (natural protein)
chain: RSYEQMETDGERQNATEIRASVGKMIGGIGRFYIQMCTELKLSDYEGRLIQNSLTIERMVLSAFDERRNKYLEEHPSAGKDPKKTGGPIYRRVDGKWMRELILYDKEEIRRIWRQANNGDDATAGLTHMMIWHSNLNDATYQRTRALVRTGMDPRMCSLMQGSTLPRRSGAAGAAVKGVGTMVMELIRMIKRGINDRNFWRGENGRRTRIAYERMCNILKGKFQTAAQRAMVDQVRESRNPGNAEFEDLIFLARSALILRGSVAHKSCLPACVYGPAVASGYDFEREGYSLVGIDPFRLLQNSQVYSLIRPNENPAHKSQLVWMACHSAAFEDLRVSSFIRGTKVVPRGKLSTRGVQIASNENMETMESSTLELRSRYWAIRTRSGGNTNQQRASSGQISIQPTFSVQRNLPFDRPTIMAAFTGNTEGRTSDMRTEIIRLMESARPEDVSFQGRGVFELSDEKAASPIVPSFDMSNEGSYFFGDNAEEYDN
**Q.** For B1, which “stoichiometry N” value is on record?
**A.** The value was 3 to 6.
